In patent publication EP4631972A1, “SITE-SPECIFIC COUPLED PEGYLATED INTERLEUKIN-2 MUTANT WITH RECEPTOR AFFINITY PREFERENCE AND USE THEREOF” (priority 2022, dated 2024):
Numbered stars: 1 amine (or outer) side, 2 acyl side, 3 side chain; on linkers, the order of the positions; unused ones are H or OH. Square brackets hold non-standard residues; d marks the D form. Prk = N-ε-propargyloxycarbonyl-L-lysine, C#CCOC(=O)NCCCC[C@H](N[*:1])C(=O)[*:2]; PEG60k = one 60 kD PEG attached to the residue; Phe(4-Ac) = CC(=O)c1ccc(C[C@H](N)C(=O)O)cc1

T1: IL-2Rαβγ triple receptor (UniProt P01589 22-272; P14784 27-551; P31785 23-369)
T1 sequence (looked up) 1: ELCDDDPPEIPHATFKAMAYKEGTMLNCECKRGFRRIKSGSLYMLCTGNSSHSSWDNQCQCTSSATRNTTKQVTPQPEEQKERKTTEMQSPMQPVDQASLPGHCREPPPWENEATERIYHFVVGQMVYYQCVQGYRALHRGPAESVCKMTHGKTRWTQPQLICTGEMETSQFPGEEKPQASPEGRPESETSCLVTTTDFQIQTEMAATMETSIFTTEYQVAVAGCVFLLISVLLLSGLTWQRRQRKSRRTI
T1 sequence (looked up) 2: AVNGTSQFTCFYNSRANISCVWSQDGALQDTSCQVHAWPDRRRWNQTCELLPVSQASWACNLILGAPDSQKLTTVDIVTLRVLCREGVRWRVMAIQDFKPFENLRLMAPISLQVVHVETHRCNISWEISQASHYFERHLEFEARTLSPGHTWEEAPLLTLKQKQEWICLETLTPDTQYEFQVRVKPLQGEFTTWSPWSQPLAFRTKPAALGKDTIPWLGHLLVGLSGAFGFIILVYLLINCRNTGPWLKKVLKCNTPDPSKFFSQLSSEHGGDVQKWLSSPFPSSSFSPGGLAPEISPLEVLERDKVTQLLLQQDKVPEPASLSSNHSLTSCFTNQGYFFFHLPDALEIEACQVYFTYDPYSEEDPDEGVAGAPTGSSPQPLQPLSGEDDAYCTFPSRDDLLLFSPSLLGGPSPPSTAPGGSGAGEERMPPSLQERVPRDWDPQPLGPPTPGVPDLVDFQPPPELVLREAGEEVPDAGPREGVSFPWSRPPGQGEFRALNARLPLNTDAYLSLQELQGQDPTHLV
T1 sequence (looked up) 3: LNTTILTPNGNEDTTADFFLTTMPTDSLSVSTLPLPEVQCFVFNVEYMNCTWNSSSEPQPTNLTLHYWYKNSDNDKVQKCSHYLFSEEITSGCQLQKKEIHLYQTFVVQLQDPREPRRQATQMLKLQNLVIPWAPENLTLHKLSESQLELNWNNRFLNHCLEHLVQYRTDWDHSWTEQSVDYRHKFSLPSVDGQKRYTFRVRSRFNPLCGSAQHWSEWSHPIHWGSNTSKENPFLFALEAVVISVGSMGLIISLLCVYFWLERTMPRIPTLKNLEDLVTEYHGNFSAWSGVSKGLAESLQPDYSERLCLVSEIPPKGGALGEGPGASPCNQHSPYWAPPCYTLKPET

T2: IL-2βγ dual receptor (Homo sapiens, UniProt P14784+P31785)
T2 construct: Uniprot P14784 1Met-551Val was constructed into plasmid pcDNA3.1(+); Uniprot P31785 1Met-551Thr was constructed into plasmid pcDNA3.1/zeo; expressed in transfected cells; host or cells: 293EC18 cells, transient co-transfection with pCMV/JAK3 and PGL4.52/STAT5RE
T2 sequence (P14784 27-551): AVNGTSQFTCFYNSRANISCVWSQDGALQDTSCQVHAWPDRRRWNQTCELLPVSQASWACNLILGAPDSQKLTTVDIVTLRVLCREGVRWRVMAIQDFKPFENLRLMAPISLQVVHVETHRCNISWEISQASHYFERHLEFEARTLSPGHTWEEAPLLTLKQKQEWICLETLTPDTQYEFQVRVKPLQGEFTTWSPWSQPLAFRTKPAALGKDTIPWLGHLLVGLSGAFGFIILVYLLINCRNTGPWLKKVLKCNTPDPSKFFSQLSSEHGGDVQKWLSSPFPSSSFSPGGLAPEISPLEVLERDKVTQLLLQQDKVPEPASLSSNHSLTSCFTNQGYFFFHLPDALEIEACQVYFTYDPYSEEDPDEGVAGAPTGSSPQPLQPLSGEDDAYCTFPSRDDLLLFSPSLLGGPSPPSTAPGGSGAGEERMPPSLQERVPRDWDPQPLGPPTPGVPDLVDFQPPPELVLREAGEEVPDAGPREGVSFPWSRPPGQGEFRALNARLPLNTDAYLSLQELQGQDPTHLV
T2 sequence (P31785 23-369): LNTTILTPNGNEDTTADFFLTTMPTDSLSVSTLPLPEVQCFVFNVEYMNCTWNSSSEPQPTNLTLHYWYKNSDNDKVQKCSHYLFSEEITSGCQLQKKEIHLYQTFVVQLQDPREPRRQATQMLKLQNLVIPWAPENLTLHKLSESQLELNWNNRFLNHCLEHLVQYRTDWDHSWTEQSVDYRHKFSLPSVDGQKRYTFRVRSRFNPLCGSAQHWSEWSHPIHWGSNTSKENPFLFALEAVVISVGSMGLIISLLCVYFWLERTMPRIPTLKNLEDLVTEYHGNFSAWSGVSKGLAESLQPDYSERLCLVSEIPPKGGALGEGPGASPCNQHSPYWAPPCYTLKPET


Columns and labels:
IL-2Rαβγ triple receptor [1] = target: T1, IL-2Rαβγ triple receptor; experiment: cell-based or functional assay
IL-2βγ dual receptor = target: T2, IL-2βγ dual receptor; experiment: STAT5 reporter gene assay, activation of IL-2βγ dual receptor in 293EC18/βγ/JAK3/STAT5 cells; format: cell-based
Protocol: Since the binding of IL-2 to the β and γ subunits of its receptor induces STAT5 phosphorylation, which subsequently leads to dimerization and translocation into the nucleus to promote target gene transcription, this example evaluates the ability of the mutant IL-2 polypeptides to induce signaling through the IL-2 receptor by measuring STAT5 phosphorylation.
Adherent 293EC18 cells were cultured to about 90% confluence using conventional methods. After trypsin digestion, the cells were resuspended in cell culture medium to 4×10^5 cells/ml and 50 µl/well were added to two 96-well cell culture plates. After incubation at 37°C for 48 h, the supernatant was aspirated and fresh culture medium was added. According to the manufacturer's method, four plasmids, pcDNA3.1(+)/CD122 (constructed by Nanjing Novoacine Biotechnology Co., Ltd, Uniprot P14784 1Met-551Val was constructed into plasmid pcDNA3.1(+)), pcDNA3.1/puro/CD132 (constructed by Nanjing Novoacine Biotechnology Co., Ltd, Uniprot P31785 1Met-551Thr was constructed into plasmid pcDNA3.1/zeo), pCMV/JAK3 (Sino Biological), and PGL4.52/STAT5RE (Promega) were transiently transfected into 293EC18 cells using a cationic transfection reagent (ExFect Transfection Reagent, Vazyme). The obtained cells were named 293EC18/βγ/JAK3/STAT5 cells. Alternatively, five plasmids, pcDNA3.1/zeo/CD25 (constructed by Nanjing Novoacine Biotechnology Co., Ltd, Uniprot P01589 1Met-551Ile constructed into plasmid pcDNA3.1/zeo), pcDNA3.1(+)/CD122 (constructed by Nanjing Novoacine Biotechnology Co., Ltd, Uniprot P14784 1Met-551Val constructed into plasmid pcDNA3.1(+)), pcDNA3.1/puro/CD132 (constructed by Nanjing Novoacine Biotechnology Co., Ltd, UniprotP31785 1Met-551Thr constructed into plasmid pcDNA3.1/zeo), pCMV/JAK3 (Sino Biological), and PGL4.52/STAT5RE (Promega) were transiently transferred into 293EC18 cells, and the obtained cells were named 293EC18/αβγ/JAK3/STAT5 cells. The transfected cells were incubated at 37°C and 5% CO2 for another 6 h.
Each IL2 mutant was diluted 4-fold in a gradient manner using PBS buffer, with a total of 11 dilutions and a starting concentration of 65.2 nM. In the above cell culture plates, 50 µl/well of each of the serially diluted IL2 mutant samples was added in duplicate. Then, the cell culture plate was placed in an incubator at 37°C and 5% CO2 for overnight culture. The cell culture plates were kept at room temperature for 20 ± 5 minutes to equilibrate the plates to room temperature. Bio-Lite Luciferase Assay System reagents that have been mixed and equilibrated to room temperature were added to the cell culture plates to be tested at 100 µl/well, placed on a microplate shaker at 450 rpm to mix for 2 minutes, then allowed to stand at room temperature for 3 minutes, and the chemiluminescence value was detected with an enzyme plate reader.
The logarithm of the final concentration of each IL-2 mutant sample was used as the X-axis, and the chemiluminescence detection results were used as the Y-axis for plotting. Data were analyzed using the four-parameter logistic regression model in GraphPad Prism 9. Table 2 EC50 values for the activation of the IL-2αβγ triple receptor by PEG-IL-2 mutants as determined by a reporter gene assay.
According to the method of Example 3, each polyethylene glycol-modified mutant obtained in this example was assessed for the binding preference to the IL2 receptors by a reporter assay. Table 4 EC50 values for the activation of the IL-2αβγ triple receptor by PEG-IL-2 mutants as determined by a reporter gene assay.
Referring to Example 3, the phosphorylation of STAT5 was used to evaluate the ability of the PEG-modified IL-2 mutants having a non-natural amino acid mutation prepared in Example 14 to induce signal transduction via the IL-2 receptor. […]

IL-2Rαβγ triple receptor [2] = target: T1, IL-2Rαβγ triple receptor; experiment: cell-based or functional assay; remark: listed apart in the source

Activation of IL-2αβγ receptor EC50 (STAT5 luciferase reporter gene assay) (IL-2Rαβγ triple receptor [1])	Activation of IL-2αβγ triple receptor EC50 (STAT5 luciferase reporter gene assay) (IL-2Rαβγ triple receptor [2])	Molecule	further results
0.368 nM	–	60k-1PEG-IL2-N88R-N33Prk (ligand) APTSSSTKKTQLQLEHLLLDLQMILNGINNYK[Prk](PEG 60 kDa)PKLTRMLTFKFYMPKKATELKHLQCLEEELKPLEEVLNLAQSKNFHLRPRDLISRINVIVLELKGSETTFMCEYADETATIVEFLNRWITFSQSIISTLT	–
0.443 nM	–	40k-1PEG-IL2-N88R-N33Prk (ligand) APTSSSTKKTQLQLEHLLLDLQMILNGINNYK[Prk](PEG‑azide 40 kDa)PKLTRMLTFKFYMPKKATELKHLQCLEEELKPLEEVLNLAQSKNFHLRPRDLISRINVIVLELKGSETTFMCEYADETATIVEFLNRWITFSQSIISTLT	–
–	–	80k-1PEG-IL2-N88R-S75C: IL-2 mutant N88R, S75C with one 80k PEG conjugated to cysteine 75 (conjugate) APTSSSTKKTQLQLEHLLLDLQMILNGINNYKNPKLTRMLTFKFYMPKKATELKHLQCLEEELKPLEEVLNLAQC(PEG 80 kDa)KNFHLRPRDLISRINVIVLELKGSETTFMCEYADETATIVEFLNRWITFSQSIISTLT	activation effect on the IL-2Rβγ dual receptor compared with control IL-2 N88R (IL-2βγ dual receptor; Figure 1, concentration of 65.2 nM): lower activation effects; activation effect on / affinity to IL-2Rβγ dual receptor compared with control IL-2 N88R (IL-2βγ dual receptor; Figure 2, all concentrations): further reduced the affinity to IL-2Rβγ
0.323 nM	–	20k-1PEG-IL2-N88R-N33Prk (ligand) APTSSSTKKTQLQLEHLLLDLQMILNGINNYK[Prk](PEG‑azide 20 kDa)PKLTRMLTFKFYMPKKATELKHLQCLEEELKPLEEVLNLAQSKNFHLRPRDLISRINVIVLELKGSETTFMCEYADETATIVEFLNRWITFSQSIISTLT	–
–	0.5 nM	20k-1PEG-IL2-N88R-N77pAcF (ligand, not fully specified) APTSSSTKKTQLQLEHLLLDLQMILNGINNYKNPKLTRMLTFKFYMPKKATELKHLQCLEEELKPLEEVLNLAQSK[Phe(4-Ac)](PEG‑hydroxylamine 20 kDa)FHLRPRDLISRINVIVLELKGSETTFMCEYADETATIVEFLNRWITFSQSIISTLT	–
–	0.319 nM	20k-1PEG-IL2-N88R-N33pAcF (ligand, not fully specified) APTSSSTKKTQLQLEHLLLDLQMILNGINNYK[Phe(4-Ac)](PEG‑hydroxylamine 20 kDa)PKLTRMLTFKFYMPKKATELKHLQCLEEELKPLEEVLNLAQSKNFHLRPRDLISRINVIVLELKGSETTFMCEYADETATIVEFLNRWITFSQSIISTLT	–
–	3.69 nM	40k-1PEG-IL2-N88R-N33pAcF (ligand, not fully specified) APTSSSTKKTQLQLEHLLLDLQMILNGINNYK[Phe(4-Ac)](PEG‑hydroxylamine 40 kDa)PKLTRMLTFKFYMPKKATELKHLQCLEEELKPLEEVLNLAQSKNFHLRPRDLISRINVIVLELKGSETTFMCEYADETATIVEFLNRWITFSQSIISTLT	–
–	5.12 nM	60k-1PEG-IL2-N88R-N77pAcF (ligand) APTSSSTKKTQLQLEHLLLDLQMILNGINNYKNPKLTRMLTFKFYMPKKATELKHLQCLEEELKPLEEVLNLAQSK[Phe(4-Ac)](PEG60k)FHLRPRDLISRINVIVLELKGSETTFMCEYADETATIVEFLNRWITFSQSIISTLT	–
–	9.21 nM	60k-1PEG-IL2-N88R-N33pAcF (ligand) APTSSSTKKTQLQLEHLLLDLQMILNGINNYK[Phe(4-Ac)](PEG60k)PKLTRMLTFKFYMPKKATELKHLQCLEEELKPLEEVLNLAQSKNFHLRPRDLISRINVIVLELKGSETTFMCEYADETATIVEFLNRWITFSQSIISTLT	–
–	1.92 nM	40k-1PEG-IL2-N88R-N77pAcF (ligand, not fully specified) APTSSSTKKTQLQLEHLLLDLQMILNGINNYKNPKLTRMLTFKFYMPKKATELKHLQCLEEELKPLEEVLNLAQSK[Phe(4-Ac)](PEG‑hydroxylamine 40 kDa)FHLRPRDLISRINVIVLELKGSETTFMCEYADETATIVEFLNRWITFSQSIISTLT	–
